The target of assay [1] is full length human tau protein 2N4R (hT40) (human) (UniProt P10636). The assay can be described thus: Simoa 3-step sandwich, S1D12 capture beads, biotinylated BT2 detector, recombinant hTau40 standard curve; fifth of 8 cells of a shifted row.
For assay [2] the target is unchanged. As to the kind of experiment: Simoa 3-step sandwich, S1D12 capture beads, biotinylated HT7 detector, recombinant hTau40 standard curve; fourth of 8 cells of a shifted row.
For assay [3] the target is unchanged. The assay can be described thus: Simoa 3-step sandwich, BT2 capture beads, biotinylated HT7 detector, recombinant hTau40 standard curve; sixth of 8 cells of a shifted row.
For assay [4] the target is unchanged. The assay can be described thus: Simoa 3-step sandwich, BT2 capture beads, biotinylated Tau12 detector, recombinant hTau40 standard curve; first of 8 cells of a shifted row, read in the order of the assay heads.
The target is the same in assay [5]. The assay can be described thus: Simoa, Tau12 on beads, biotinylated HT7 detector.
Assay [6] shares this target. As to the kind of experiment: Simoa 3-step sandwich, S1D12 capture beads, biotinylated Tau12 detector, recombinant hTau40 standard curve; third of 8 cells of a shifted row.
For assay [7] the target is unchanged. As to the kind of experiment: Simoa 3-step sandwich, S1D12 capture beads, biotinylated Tau46 detector, recombinant hTau40 standard curve; seventh of 8 cells of a shifted row.

Chain of full length human tau protein 2N4R (hT40) (human) (P10636 other isoform, or with tags, fused parts or gaps limits assumed): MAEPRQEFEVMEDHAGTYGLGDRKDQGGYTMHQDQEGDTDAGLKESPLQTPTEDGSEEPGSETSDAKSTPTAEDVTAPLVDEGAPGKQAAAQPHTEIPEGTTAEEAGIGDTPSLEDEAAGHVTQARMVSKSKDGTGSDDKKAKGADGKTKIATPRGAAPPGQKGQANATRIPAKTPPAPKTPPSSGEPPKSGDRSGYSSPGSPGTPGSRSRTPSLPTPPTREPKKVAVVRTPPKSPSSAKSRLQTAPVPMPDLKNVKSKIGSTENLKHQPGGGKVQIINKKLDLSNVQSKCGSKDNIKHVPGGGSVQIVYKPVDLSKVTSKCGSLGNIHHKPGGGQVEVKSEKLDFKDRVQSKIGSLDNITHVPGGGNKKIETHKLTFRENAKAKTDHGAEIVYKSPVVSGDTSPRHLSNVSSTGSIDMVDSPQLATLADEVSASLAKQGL

Consider BT2 (antibody), for which the Assay limit of detection in assay [1] was found to be 10.8 pg/mL.

For the substance HT7 (antibody), the Assay limit of detection in assay [2] and in assay [3] was 0.25 pg/mL each time.

For the substance Tau12 mAb (antibody), the Assay limit of detection in assay [4] and in assay [6] was 0.25 pg/mL in each case. Further, the Simoa limit of detection in assay [5] was 2.2 pg/mL.

As for Tau46 (antibody), the Assay limit of detection in assay [7] was found to be 2.2 pg/mL.

The record behind these values is patent US20250147051A1, “METHOD FOR DETECTING A TAU PROTEIN IN A SALIVA SAMPLE” (GTINVENT LIMITED, priority 2022, published 2025).
